# According to paper PMC5405149:
# Biological target: T1, r-YycF (His-GB1-YycF) (Staphylococcus epidermidis (1457?)) (UniProt Q8CQK0)
# T1 sequence: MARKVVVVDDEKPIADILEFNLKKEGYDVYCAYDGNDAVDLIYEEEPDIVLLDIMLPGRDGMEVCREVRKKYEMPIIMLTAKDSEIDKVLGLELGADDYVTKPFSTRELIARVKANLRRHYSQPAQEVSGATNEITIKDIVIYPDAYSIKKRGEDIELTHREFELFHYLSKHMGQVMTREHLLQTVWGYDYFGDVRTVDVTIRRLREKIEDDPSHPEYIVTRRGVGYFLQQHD
# Test: EMSA
# Settings: EMSA: 20 nM DNA, 10 mM Tris pH 8.0, 25 mM KCl, 1 mM EDTA, 2.5 mM MgCl2, 5% glycerol, 37 C 30 min; footprinting: 200 ng probe, binding at 30 C 30 min, DNase I …
row,Sequence,binding
1,AAACTAAATTGACCATCACTTAACTAGGTGCTCTGTTAAACTTTTGTTATAAATTAAAGATAGAAGCAACCTATTCATATAAAGTGGTATCTCTTGACAATTTTACTCGTTTATAAGATGTTATAATTATGTAGTGTATAAGGAGGCATA (double strand) [rpsA promoter 150 bp],binds
2,ATAATGCTAGAGGGACTTTTTCTAAAGACAGTCTACTTATTCGACTATCTATTAAGGTGGTTCATGGTAAAATGATACTAGTTTCATAACAAATCATTTACAATTTTGAATTACATCTTTAGAAATACGAGTTAATTGTTTAAGATGTAGCGTGAGGTG (double strand) [arlR promoter 159 bp],binds
3,ATGATAGGAATCATTACGGTTATTCATAAAAATTAGCATCCTATTTCATGTAATTGTAGTGTAAAAAATAGGCGTTTATTTTTATTTCAGTGTAACCTGCACG (double strand) [sceD promoter 103 bp],binds
4,ATTATTCAAATGCTTGTAGTTTTATAAGTCGCATTATTATTTTTAAATATTTTCACTATTGAATGGATTTTGATCTTCTTTATAAAAAATAAATAAAAGGTTTAAAGTTAAATAAAATTTAAAAAATAATAATTTATACAAAATGATATTTTTTTTAATCATAAATAATATGTAAAGTATTGCGTTAAAATGTAAAAGAAGGTAACATTACATACTAGATACATAAAATATATGTATCTTACATTTAAAATTAAATACATGGGAGGTATAAT (double strand) [aap promoter],binds
5,CACATTGCTATGTTAATTATTATCAAAAAGAATTTTCAGTAATTTTACATTCATGTAACAGTGTTTGTGTTGCTCAAAATAAAATACTTTAAAAAAGCTGAGCGTATCATTTCTATTCATATTACATAAATTAATTGGGTTAAATGAGATTGTGTAACAATATTAGCAAAAAATTACAAATCAATAACAATGCACACAAACATCAATTTTTCTGTTAGAGTATGGCTTGTCG (double strand) [ssaA1 promoter 232 bp],binds
6,CACGATTTTAGTATTGTCTTCAAAAAATCTTAGTATTTGCTATATATTATGTTAATACATGTATATCTTAGCATTATTTAAATAAGGAATGAATTATTTAAAGGTGAGCGCAACAAAATTTTAAGTATATTTTAACACTACCTTAACAGTCTTTAATGAATGATTTTATCACTATCTAATAGAACGTG (double strand) [murE promoter 188 bp],binds
7,CATCTATTCATTCAATCAAGTATTTTTATTCTTTATAAAACTATGTTAGCAAATTAAATTTTAATACACGTTTCATTAATTCAAATCCCATTCTTAACAAAAAATTTACAATAACTCTATTTTGATTTAATAAAAGATATGTAACATGAGAACTGTAAGAAATACATAT (double strand) [pstS promoter 167 bp],binds
8,TGATTTTATCGCTCATCATTTTTAATAAGATTATGAGACACTTATGTAAAAATTTAATATCTAGTTTGTTAAGAATTTGTAAATAGAATTGTGGTTATGTAAATTTTGTGATATTTTCAAGTAGGGACAAAACTGGATGTTGGCGAACATCAATAAATGATTACTATATATTAAATTTACACAATTTTTACAATATAAGAATTGCTAGTTACTTTTTATAATAATTGTAAATCAGTTCCTCAACCACTT (double strand) [pitR promoter 249 bp],binds
9,TTACAAACCCCGTCATATCTAGGACTAACAGACCTCAATTATATAAATAAGTAATTTTTTTTGAACATACTCTTGTAAATATTGTGTAATAAACTAAAATTATTGGTAAGCCCTACATTTGTAGTATTAGGAGGTCAAAAAAAGTGTCAAAATTTAAGTCTTTGCTTCTATTATTTGGCA (double strand) [qoxB promoter 180 bp],binds
10,TTCTAAAATCTCCCCCTTATTCAATTTTCTAAAAATATATTACAGAAAAATTAAGTTAAAATTACAAATATTACTGTTTCAGTATAACAACATTCTATTGCAAATTGAAATACTTTCGATTAGCATATGCTTTACAACCTAACTAACGAAAGGTAGGTGAAAAA (double strand) [ica intergenic region (icaR-icaA)],binds
